Assay results as given in the nanobody polyreactivity screen of Harvey et al. (2022).

Experiment: yeast display, Sf9 membrane polyspecificity reagent, FACS + sequencing; frameworks hold sequencing errors
How it was run: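 Galactose-induced (36–48 hours) yeast carrying a synthetic nanobody display library were exposed to 10% biotinylated, detergent-solubilized Sf9 membrane reagent at 4 °C for 1 hour. FACS followed streptavidin microbead enrichment, using low and high (top ~1%) gates for expression (anti-HA) and reagent binding (streptavidin). Colony PCR, MiSeq 2 × 250 sequencing and CDR-length filtering followed. Labels for polyreactivity reflect the gate of origin.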

| Sequence | polyreactivity (PSR sort gate) |
| --- | --- |
| QVQLVESGGGLVQAGGSLPLSCAASGRIFRRNAKGWYRPAPGKEREMVAAIRYGGGTTYAHSVKGRFTISRDNAKNTVYLQMNSLKPEDTAVYYCAVGPRASFGYGYWGQGTQVTVSS | high polyreactivity |
| QVQLVESGGGLVQAGGSLPLSCAASGSIFGGNDMGWYRQAPGKERELVAAITSSGGSTYYADSVKGRFTITRDNAKITVYCQMNRLKPEVTAVYYCNADYYGPYRDYGYWGQGTQVTVSS | low polyreactivity |
| QVQLVESGGGLVQAGGSLPLSCAASGSIFYSNAMGWYRQAPGKERELVARISRSGGSTYYADSVKGRFTISRDNAKNTVYLQMNSLKPEDTAVYYCAKTFTRSWGLGGSWGQGTQVTVSS | low polyreactivity |
| QVQLVESGGGLVQAGGSLPLSCAAYGFTFWYYAMGWYRQAPGKERELVAAISTGGRTNYADSVKGRFTISRDNAKNTVYLQMNSLKPEDTAFYYCAADQSYFYLYRYRFDYWGQGTQVTVSS | high polyreactivity |
| QVQLVESGGGLVQAGGSLPLSSAASGITFRLYALGWYRQAPGKERELVATITSLGGGTYYADSVKGRFTISRDNAKNTVYLQMHCLIPEDTAVYYCAADVSRPPAGFNYWGQGSQVTVSS | high polyreactivity |
| QVQLVESGGGLVQAGGSLPLTCAASGSIFAWNDMGWYRQAPGKERELVAAIRESGTGTYADSVKGRFTISRDNAKNNVYLQMKSLKPEDTAVYYGVADEIQFFIYRMEYWGQGTQVTVSS | low polyreactivity |
| QVQLVESGGGLVQAGGSLRCSWAASGFIFTPYAMGWYRQAPGTEREFVATITWSGGSTNYADSVKGRFTISRDNAKNTVYLPMNSLKPDDTAVYYCNADTWSPNDYWGQGTQVTVSS | low polyreactivity |
| QVQLVESGGGLVQAGGSLRFICAASGFLFRAYTMGWYRQAPGKERELVAAITSSGGRTYYADSVKGRFSISRDNAKNTVFLQMNSLKPEDTAVYYCATVYAKWKQFDSWGQGTQVNVSS | high polyreactivity |
| QVQLVESGGGLVQAGGSLRFICAASGRTFDWYAMGWYRPAPGKERELVAGNSWSGGSTYYADSVKGRFTISRDNAKNTVYLQMNSLKPEDTAVYYCAAEYPFEIGYVYYYIDYDYWGQGTQVTVSS | low polyreactivity |
| QVQLVESGGGLVQAGGSLRFSCAACGSIFEFYALGWSSQAPGKERELVAAITWDDGSTYYADSVKGRFTISRDNATNTVYLQMNSLTPEDTAVYYCAADTYITSDLYVYAYYYWGQGTQVTVSS | low polyreactivity |
| QVQLVESGGGLVQAGGSLRFSCAASGFIFSAYAMGWYRPAPGKERELVAAITWNGGSTYYADSVKGRFTISRDNAKNTVYLQMNSLKPEDTAVYYCNAVIKQHYIKYSYWGQGTQVTVSS | high polyreactivity |
| QVQLVESGGGLVQAGGSLRFSCAASGINFYFNAMGWYRQAPGKERELVAVITSGGSTNYADSVKGRFTISRDNAKNTVYLQMNSLKPEDTAVYYCATDKSYSSWSAQYVYWGQGTQVTVSS | low polyreactivity |
| QVQLVESGGGLVQAGGSLRFSCAASGITIRFYAMGWYRQAPGKERELVAAITRGGSTTYAHSVKGRFTISRDNAKNTVYLQMNSLKPEDTEVSYCNAQYQSGYYTSYPDRFDTWGQGTQVTVSS | low polyreactivity |
| QVQLVESGGGLVQAGGSLRFSCAASGNTFYQYAMGWYRQAPGKERELVAAIVWSGGTTYYADSVKGRFTISRDNAKNTVYLQMTSLKPEDTAVYYCNADYDRGPYDYDSWGQGTQVTVSS | low polyreactivity |
| QVQLVESGGGLVQAGGSLRFSCAASGRIFGDYAMGWYRLAPGKERELVAAISWSDGSTYYADSVKGRFTISRDNAKNTVYLQMNSLKPEDTAVYYCAASYWDTEPGYREYDYWGQGTQVTVSS | low polyreactivity |
| QVQLVESGGGLVQAGGSLRFSCAASGRIFQYNAMGWYRQAPGKERELVASITSGVRTYYADSVKGRFTISRDNAKNTVYLQMNSLKPEDTAVYYCNAYSGGQYDYCGQGTQVTVSS | high polyreactivity |
| QVQLVESGGGLVQAGGSLRFSCAASGRTFFGYAMGWYRQAPGKERELVAAISRGGTTHYADSVKGRFTISRDNAKNTVYLQMNSLKPEDTAVYYCAADGYPYIWSGIEYDYWGQGTQVTVSS | high polyreactivity |
| QVQLVESGGGLVQAGGSLRFSCAASGRTFGINAMGWYRQAPGKERELVAVITFGDGGTYYADSVKGRFTISRDNAKNTVYLQMNSLNPEDTAVYYCSTDYQSTSVWGGHFVINPYDYWGQGTQVTVSS | low polyreactivity |
| QVQLVESGGGLVQAGGSLRFSCAASGRTFTYYAMGWYRQAPGKERELVASIRKSGASTYYADSVKGRFTISRDKAKNTVYLQMNSLKPEETAVYYCNTAKGHGRYEYWGQGSQVTVSS | high polyreactivity |
| QVQLVESGGGLVQAGGSLRFSCAASGRTFYRNVMGWYRQAPGKERELVAVITSGGSTNYADSVKGRFTISRDNAQNTVYLQMNSLKPEDTAVYYCNTALSSRSNKMYYWGQGTQVTVSS | high polyreactivity |
| QVQLVESGGGLVQAGGSLRFSCAASGRTLVYNGMGWYRPAPGKERELVAAITTDGGDTYYADSVKGRFTISRDNAKNTVYLQMDSLKPEDTAVYYCAADYVALYYWYDYWGQGTQVTVSS | low polyreactivity |
| QVQLVESGGGLVQAGGSLRFSCAASGSIFDRYAMGWYRQAPGKERELVAAITYSGGSTYYADSVKGRFTISRDNAKNTVYLQMNSLKPEDTAVYYCATETYPQGRYYQSYDYWGQGTQVTVSS | low polyreactivity |

| Sequence | polyreactivity (PSR sort gate) |
| --- | --- |
| QVQLVESGGGLVQAGGSLRFSCAASGSIFQPYAMGWSRQAPGKERAFVAAISRSGGITYYADSVKGRFTISRDNAKNTVYLQMNSLKPEDTAVYYCAADYILWKGSNSYYYAGYYYWGQGTQVTVSS | low polyreactivity |
| QVQLVESGGGLVQAGGSLRFSCAASGSIFSSYDMGWYRQAPGKERELVAAITRGGTTNYADSVKGRFTISRDNAKNTVYLQMNSLKPEDTAVYYCNVAYGLLGISPGGDYWGQGTQVTVSS | low polyreactivity |
| QVQLVESGGGLVQAGGSLRFSCAASGSILYGYAIGWYRQAPGQETELVAAIRLTGGSTYYADSVKGRFTISRDNAKNTVYLQMNSLKPEDTAVYYCAAEYNLRNYWGDYWGQGTLVTVSS | low polyreactivity |
| QVQLVESGGGLVQAGGSLRFSCAASGSISSQYGMGWYRQEPGKVRELVATIRDGGPTNYADSVKGRFTISRDNAKYTVYLQMNSLKPEDTAVYSCAALYWYYYTWPLYDYWGQGTQVTVSS | low polyreactivity |
| QVQLVESGGGLVQAGGSLRFSCAASGSTFKRYTMGWYRQAPGKERELVAAISTSSGSTYYADSVKGRFTISRDNAKNSVYLQMHSLKPEDTAVYYCAAVRLRQTYPKYNYWGQGTQVTVSS | high polyreactivity |
| QVQLVESGGGLVQAGGSLRFSCAASGSTFTTNVMGWYRQAPGKERELVAAISHRGGSTYYADSVKGRFTMSRDNAKNTVYLQMNSLKPEDTAVYYCAAPGWERYGYWGQGTQVTVSS | low polyreactivity |
| QVQLVESGGGLVQAGGSLRFSCAASGSTFYLYDMGWYRQAPGQERELVAVISWSGGSTSYADSVKGRFTISRDNAKNTIYLQMYSLKPEDTAVYYCTTDFYHWGQGTQVTVSS | low polyreactivity |
| QVQLVESGGGLVQAGGSLRFSCAASGYIFSLNGRGWYRQAPGKERELVAAISSSGGRTYYADSVKGRFTISRDNAKNTVYLQMNSLKPEDTAVYYCAAEVYLSTYYQDMNYWGQGTQVTVSS | high polyreactivity |
| QVQLVESGGGLVQAGGSLRFSCAASRSIFFWYTMGWYRQAPGKYRELVATITGSGSSTTYADSVKGRFTISRDNAKNTVYLQMNSLKPEDTAVYYCAAADIIDHSFPYDYWGQGTQVTVSS | low polyreactivity |
| QVQLVESGGGLVQAGGSLRFSCAATGSIFVVNAMGWYRQAPGKERELVASITWSGDNTYYADSVKGRFTISRDNAKNTVYLQMNSLKPEDTAVYYCAATIWIAYRGWYSDYNYWGQGTQVTVSS | low polyreactivity |
| QVQLVESGGGLVQAGGSLRFSCAAYGSISRYYAMGWYRLAPGKERELVAAISSNGGSTYYADSVKGRFTISRDNAKNTVYLQMNSLKPEDTAVDDCAAESDYFRYDYWGQGTQVTVSS | high polyreactivity |
| QVQLVESGGGLVQAGGSLRFSCPASGSIFPAYARGWYRQAPGKERELVAAITRGGSTDYADSVKGRFTISRDNAKNTVYLQMNSLKPEDTAVYYCAKRGYYYYHYVSGKPEDYWGQGTQVTVSS | low polyreactivity |
| QVQLVESGGGLVQAGGSLRFSSPASGLTFGTYAMGWYRQAPGKERELVAAISTSGVRTYYADSVKGRFTISRDIAKNTVYLQMNSLKPEDTAVYYCAARYNRAYSRDYWGQGSQVTVSS | high polyreactivity |
| QVQLVESGGGLVQAGGSLRIICAASGSIFVEYAMGWYRQAPGKERELVAAITYRGGSTYYADSVKGRFTISRDNAENTVYLQMNSLKPEDTAVYYCAAAVYYWGTSAYEYWGQGTQVTVSS | low polyreactivity |
| QVQLVESGGGLVQAGGSLRIRCAASGRIFDTYAMGWYRQAPGKEREFVATISWDSASTYYADSVKGRFTISRDNAKNTVYLQMNSLKPEDTAVDYCAAGGSSSWAFNYWGQGTQLTVSS | low polyreactivity |
| QVQLVESGGGLVQAGGSLRISCAASASIFPGYAMGWYRQAPGKERELVAAISWSGGRTYYADSVKGRFTISRDNSKNTFYLQMNSLKPEDTAVYYCAARKYHLRSAYDYWGQGTQVTVSS | low polyreactivity |
| QVQLVESGGGLVQAGGSLRISCAASGFIFRYNAMGWYRQAPGKERELVAAINSGDSTNYADSVKGRFTISRDNAKNTVYLQMNSLKPEDTAVYYYWGQGTQVTVSS | low polyreactivity |
| QVQLVESGGGLVQAGGSLRISCAASGFSCRQYAMGWYRQAPGKERELVAAISSSGGRTYYADSVKGRFTISRDNAKNTVYLQMNSLKPEDTAVYYCIARAWLRVEYGEGYWGQGTQVTVSS | high polyreactivity |
| QVQLVESGGGLVQAGGSLRISCAASGFTFPIYAMGWYRKAPGKEREFVAAITASGDNTYYADSVKGRFTISRDNAKNTVYLQMNSLKPEDSAVYYCAADWFVDWWEYDYWGQGTQVTVSS | low polyreactivity |
| QVQLVESGGGLVQAGGSLRISCAASGFTFVAYAMGWYRKAPGKERELVAAISRRGGTTYYADSVKGRFTISRDNAKNTVYLQMNSLKPEDTAVYYCNARGFPGKFGYWGQGTQVTVSS | high polyreactivity |
| QVQLVESGGGLVQAGGSLRISCAASGFTFYRYAMGWSIPAPGKERELVAAISSHGDSTYYADSVKGRFTISRDNAKNTVYLQMNSLKPEDTAVYYCNVETLYGYFLHFYLRYYHWGQGTQVTVSS | high polyreactivity |
